# Reference: US7122624B2, “Parathyroid hormone receptor ligands” (The United States of America as represented by the …, priority 1999, dated 2006)
# How the values were obtained:
# human PTH2 receptor = biological target: T1, human PTH2 receptor (Homo sapiens, UniProt P49190); test: cAMP accumulation in COS-7 cells transiently expressing the human PTH2 receptor; type: cell-based; details: COS-7
# T1 construct: expressed in transfected cells; host or cells: COS-7 (transient)
# Excerpt: (§1) Cell culture supplies were obtained from Life Technologies (Frederick, Md.) except for fetal bovine serum which was from Sigma (St. Louis, Mo.).
# (§2) The constructs containing the cDNA sequences of the human PTH2 receptor and β-galactosidase have been previously described.
# (§3) All peptides were purchased from either Bachem (Torrance, Calif.) or Peninsula Laboratories (Belmont, Calif.). The letters ‘b,’ ‘r’ and ‘h’ designate the peptide sequence as bovine, rat and human, respectively. […] [α-^32P]dCTP was purchased from ICN Biomedicals (Costa Mesa, Calif.). Bovine hypothalamic extract was prepared by acid extraction, gel-filtration and reverse-phase HPLC as previously described. […] Antagonist inhibitory potency was examined by measuring the concentration-dependence of rPTH(1–34)-stimulated cAMP accumulation in the presence and absence of antagonist.
# (§4) Statistical comparison of two sample means was evaluated using the two-tailed Student's t-test. […] Antagonist inhibitory potency was quantified using the pA2, value, the negative logarithm of the concentration of antagonist that produces a two-fold decrease of agonist EC50. This was calculated using the following equation: pA2=((EC50/EC50′)−1)−log [antagonist]
# rat PTH2 receptor = biological target: T2, rat PTH2 receptor (Rattus norvegicus, UniProt P70555); test: cAMP accumulation in COS-7 cells transiently expressing the rat PTH2 receptor; type: cell-based
# T2 construct: expressed in transfected cells; host or cells: COS-7 (transient)
# T2 sequence (P70555 25-546): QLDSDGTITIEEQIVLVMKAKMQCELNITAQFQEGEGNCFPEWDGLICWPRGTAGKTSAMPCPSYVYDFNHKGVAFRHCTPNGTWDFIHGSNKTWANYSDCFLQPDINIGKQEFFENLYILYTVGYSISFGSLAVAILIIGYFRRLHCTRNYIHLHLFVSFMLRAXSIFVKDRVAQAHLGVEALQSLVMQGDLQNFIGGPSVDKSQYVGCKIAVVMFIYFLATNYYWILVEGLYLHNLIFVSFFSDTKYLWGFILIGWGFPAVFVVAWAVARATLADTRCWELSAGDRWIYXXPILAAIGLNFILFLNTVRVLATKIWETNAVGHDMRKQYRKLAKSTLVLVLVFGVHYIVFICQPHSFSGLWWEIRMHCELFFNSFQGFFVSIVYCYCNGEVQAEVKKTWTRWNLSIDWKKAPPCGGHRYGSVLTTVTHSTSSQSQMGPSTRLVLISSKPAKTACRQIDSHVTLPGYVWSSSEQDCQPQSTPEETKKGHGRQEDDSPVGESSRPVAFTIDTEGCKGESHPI
# Procedure: To express rat PTH2 receptor in cell culture, a rat hypothalamus cDNA library was prepared in the vector CDM7 amp as described. […] A clone was isolated from a single positive pool by colony hybridization using the same ^32P labeled probe.
# as §1, §2, §3, §4
# T1 sequence (P49190 25-550): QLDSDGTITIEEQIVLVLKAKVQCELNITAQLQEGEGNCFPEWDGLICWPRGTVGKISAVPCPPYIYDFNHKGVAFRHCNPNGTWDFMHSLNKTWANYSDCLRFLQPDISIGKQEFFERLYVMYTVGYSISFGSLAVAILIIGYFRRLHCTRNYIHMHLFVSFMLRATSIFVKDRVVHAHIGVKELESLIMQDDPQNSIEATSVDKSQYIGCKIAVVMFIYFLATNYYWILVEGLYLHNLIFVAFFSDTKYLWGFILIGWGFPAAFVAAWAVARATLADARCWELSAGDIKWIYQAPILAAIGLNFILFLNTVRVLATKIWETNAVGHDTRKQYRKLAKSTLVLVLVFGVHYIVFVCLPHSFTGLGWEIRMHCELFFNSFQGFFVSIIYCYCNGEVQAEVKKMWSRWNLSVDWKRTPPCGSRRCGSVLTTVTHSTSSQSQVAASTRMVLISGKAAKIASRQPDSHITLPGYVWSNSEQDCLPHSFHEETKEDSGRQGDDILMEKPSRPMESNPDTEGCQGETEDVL
molecule,measurement,setting,value
"rPTH(1-84): rat full-length parathyroid hormone (1–84), purchased (peptide) peptide: AVSEIQLMHNLGKHLASVERMQWLRKKLQDVHNFVSLGVQMAAREGSYQRPTKKEENVLVDGNSKSLGEGDKADVDVLVKAKSQ",EC50,"human PTH2 receptor; activation of adenylyl cyclase, figures in brackets",0.58 nM
same,−logEC50,"human PTH2 receptor; activation of adenylyl cyclase, mean ± s.e.m. of three or four experiments",9.24 ± 0.05
same,"Emax, % of response to 1 μM hPTH(1-34)",human PTH2 receptor; intrinsic activity,98 ± 4%
same,EC50,"rat PTH2 receptor; activation of adenylyl cyclase, COS-7, figures in brackets",19 nM
same,−logEC50,"rat PTH2 receptor; activation of adenylyl cyclase, COS-7, mean ± s.e.m. of three or four experiments",7.72 ± 0.12
same,"Emax, % of response of rPTH2r to 3 μM rPTH(1-34)","rat PTH2 receptor; intrinsic activity, COS-7",97 ± 5%
same,"Emax, % of response of hPTH2r to 1 μM hPTH(1-34)",rat PTH2 receptor; rat receptor response relative to human PTH2 receptor response measured in parallel,28 ± 4%
